Target: mNeonGreen-tagged full length Gli2 (human) (UniProt P10070)
Assay: cell-based or functional assay

amount of Gli2 in the nucleus as a percentage of total Gli expression (mNeonGreen intensity), HeLa cells: < 25%
Substance: mRuby-tagged Kif7-CC (460-600aa) with ER localization signal (from UniProt Q2M1P5 460-600)
